Values joined by “and” are separate entries in the source; they are usually repeats but may differ in a detail not shown here. Equal values may be shown once.
B1: Knob-Fab+CEA-Hole (108) (bispecific antibody, human IgG4 S228P, kappa, F234A L235A)
heavy: ESKYGPPCPPCPAPEAAGGPSVFLFPPKPKDTLMISRTPEVTCVVVDVSQEDPEVQFNWYVDGVEVHNAKTKPREEQFNSTYRVVSVLTVLHQDWLNGKEYKCKVSNKGLPSSIEKTISKAKGQPREPQVYTLPPCQEEMTKNQVSLWCLVKGFYPSDIAVEWESNGQPENNYKTTPPVLDSDGSFFLYSRLTVDKSRWQEGNVFSCSVMHEALHNHYTQKSLSLSLGGGGSGGGGSEVKLLESGGGLVQPKGSLKLSCAASGFTFNTYAMNWVRQAPGKGLEWVARIRSKYNNYATYYADSVKDRFTISRDDSQSILYLQMNNLKTEDTAMYYCVRHGNFGNSYVSWFAYWGQGTLVTVSSASTKGPSVFPLAPCSRSTSESTAALGCLVKDYFPEPVTVSWNSGALTSGVHTFPAVLQSSGLYSLSSVVTVPSSSLGTKTYTCNVDHKPSNTKVDKRV
chain: EVQLVESGGGFVQAGESLTLSCTSSTLTFTPYRMAWYRQAPGKQRDLVADISSGDGRTTNYADFAKGRFTISRDNIKNTVFLRMTNLKPEDTAVYYCNTFVSFVGIARSWGQGTQVTVSSESKYGPPCPPCPAPEAAGGPSVFLFPPKPKDTLMISRTPEVTCVVVDVSQEDPEVQFNWYVDGVEVHNAKTKPREEQFNSTYRVVSVLTVLHQDWLNGKEYKCKVSNKGLPSSIEKTISKAKGQPREPQVCTLPPSQEEMTKNQVSLSCAVKGFYPSDIAVEWESNGQPENNYKTTPPVLDSDGSFFLVSRLTVDKSRWQEGNVFSCSVMHEALHNRFTQKSLSLSL
light: QAVVTQESALTTSPGETVTLTCRSSTGAVTTSNYANWVQEKPDHLFTGLIGGTNKRAPGVPARFSGSLIGDKAALTITGAQTEDEAIYFCALWYSNLWVFGGGTKVEIKRTVAAPSVFIFPPSDEQLKSGTASVVCLLNNFYPREAKVQWKVDNALQSGNSQESVTEQDSKDSTYSLSSTLTLSKADYEKHKVYACEVTHQGLSSPVTKSFNRGEC
notes: Anti-CD3 TA1 Fab + anti-CEA VHH C17 on human IgG4 knob-into-hole Fc
B2: Fab (Light)-Knob-CEA+Fab (Heavy)-Hole (209) (bispecific antibody, human IgG4 S228P, kappa, F234A L235A)
chain: QAVVTQESALTTSPGETVTLTCRSSTGAVTTSNYANWVQEKPDHLFTGLIGGTNKRAPGVPARFSGSLIGDKAALTITGAQTEDEAIYFCALWYSNLWVFGGGTKVEIKRTVAAPSVFIFPPSDEQLKSGTASVVCLLNNFYPREAKVQWKVDNALQSGNSQESVTEQDSKDSTYSLSSTLTLSKADYEKHKVYACEVTHQGLSSPVTKSFNRGECESKYGPPCPPCPAPEAAGGPSVFLFPPKPKDTLMISRTPEVTCVVVDVSQEDPEVQFNWYVDGVEVHNAKTKPREEQFNSTYRVVSVLTVLHQDWLNGKEYKCKVSNKGLPSSIEKTISKAKGQPREPQVYTLPPCQEEMTKNQVSLWCLVKGFYPSDIAVEWESNGQPENNYKTTPPVLDSDGSFFLYSRLTVDKSRWQEGNVFSCSVMHEALHNHYTQKSLSLSLGGGGSGGGGSEVQLVESGGGFVQAGESLTLSCTSSTLTFTPYRMAWYRQAPGKQRDLVADISSGDGRTTNYADFAKGRFTISRDNIKNTVFLRMTNLKPEDTAVYYCNTFVSFVGIARSWGQGTQVTVSS
heavy: EVKLLESGGGLVQPKGSLKLSCAASGFTFNTYAMNWVRQAPGKGLEWVARIRSKYNNYATYYADSVKDRFTISRDDSQSILYLQMNNLKTEDTAMYYCVRHGNFGNSYVSWFAYWGQGTLVTVSSASTKGPSVFPLAPCSRSTSESTAALGCLVKDYFPEPVTVSWNSGALTSGVHTFPAVLQSSGLYSLSSVVTVPSSSLGTKTYTCNVDHKPSNTKVDKRVESKYGPPCPPCPAPEAAGGPSVFLFPPKPKDTLMISRTPEVTCVVVDVSQEDPEVQFNWYVDGVEVHNAKTKPREEQFNSTYRVVSVLTVLHQDWLNGKEYKCKVSNKGLPSSIEKTISKAKGQPREPQVCTLPPSQEEMTKNQVSLSCAVKGFYPSDIAVEWESNGQPENNYKTTPPVLDSDGSFFLVSRLTVDKSRWQEGNVFSCSVMHEALHNRFTQKSLSLSL
notes: Two-chain format; human IgG4 knob-into-hole Fc
B3: 308 (TA3), configuration of FIG. 1X (bispecific antibody, IgG4)
heavy: EVQLVESGGGLVQPGGSLRLSCAASGYSFTGYTMNWVRQAPGKGLEWVALINPYKGVSTYNQKFKDRFTISVDKSKNTAYLQMNSLRAEDTAVYYCARSGYYGDSDWYFDVWGQGTLVTVSSASTKGPSVFPLAPCSRSTSESTAALGCLVKDYFPEPVTVSWNSGALTSGVHTFPAVLQSSGLYSLSSVVTVPSSSLGTKTYTCNVDHKPSNTKVDKRVESKYGPPCPPCPAPEAAGGPSVFLFPPKPKDTLMISRTPEVTCVVVDVSQEDPEVQFNWYVDGVEVHNAKTKPREEQFNSTYRVVSVLTVLHQDWLNGKEYKCKVSNKGLPSSIEKTISKAKGQPREPQVYTLPPCQEEMTKNQVSLWCLVKGFYPSDIAVEWESNGQPENNYKTTPPVLDSDGSFFLYSRLTVDKSRWQEGNVFSCSVMHEALHNHYTQKSLSLSLGGGGSGGGGSEVQLVESGGGFVQAGESLTLSCTSSTLTFTPYRMAWYRQAPGKQRDLVADISSGDGRTTNYADFAKGRFTISRDNIKNTVFLRMTNLKPEDTAVYYCNTFVSFVGIARSWGQGTQVTVSS
chain: ESKYGPPCPPCPAPEAAGGPSVFLFPPKPKDTLMISRTPEVTCVVVDVSQEDPEVQFNWYVDGVEVHNAKTKPREEQFNSTYRVVSVLTVLHQDWLNGKEYKCKVSNKGLPSSIEKTISKAKGQPREPQVCTLPPSQEEMTKNQVSLSCAVKGFYPSDIAVEWESNGQPENNYKTTPPVLDSDGSFFLVSRLTVDKSRWQEGNVFSCSVMHEALHNRFTQKSLSLSL
light: DIQMTQSPSSLSASVGDRVTITCRASQDIRNYLNWYQQKPGKAPKLLIYYTSRLESGVPSRFSGSGSGTDYTLTISSLQPEDFATYYCQQGNTLPWTFGQGTKVEIK
notes: chains put together from parts; IgG4, kappa; not shown: kappa light chain constant domain (CL)
B4: Knob-Fab+Hole-CEA (109) (bispecific antibody, human IgG4 S228P, kappa, F234A L235A)
heavy: B1 heavy
chain: ESKYGPPCPPCPAPEAAGGPSVFLFPPKPKDTLMISRTPEVTCVVVDVSQEDPEVQFNWYVDGVEVHNAKTKPREEQFNSTYRVVSVLTVLHQDWLNGKEYKCKVSNKGLPSSIEKTISKAKGQPREPQVCTLPPSQEEMTKNQVSLSCAVKGFYPSDIAVEWESNGQPENNYKTTPPVLDSDGSFFLVSRLTVDKSRWQEGNVFSCSVMHEALHNRFTQKSLSLSLGGGGSGGGGSEVQLVESGGGFVQAGESLTLSCTSSTLTFTPYRMAWYRQAPGKQRDLVADISSGDGRTTNYADFAKGRFTISRDNIKNTVFLRMTNLKPEDTAVYYCNTFVSFVGIARSWGQGTQVTVSS
light: B1 light
notes: as for B1
B5: Fab (Light)-Knob+Fab (Heavy)-Hole-CEA (210) (bispecific antibody, human IgG4 S228P, kappa, F234A L235A)
chain: QAVVTQESALTTSPGETVTLTCRSSTGAVTTSNYANWVQEKPDHLFTGLIGGTNKRAPGVPARFSGSLIGDKAALTITGAQTEDEAIYFCALWYSNLWVFGGGTKVEIKRTVAAPSVFIFPPSDEQLKSGTASVVCLLNNFYPREAKVQWKVDNALQSGNSQESVTEQDSKDSTYSLSSTLTLSKADYEKHKVYACEVTHQGLSSPVTKSFNRGECESKYGPPCPPCPAPEAAGGPSVFLFPPKPKDTLMISRTPEVTCVVVDVSQEDPEVQFNWYVDGVEVHNAKTKPREEQFNSTYRVVSVLTVLHQDWLNGKEYKCKVSNKGLPSSIEKTISKAKGQPREPQVYTLPPCQEEMTKNQVSLWCLVKGFYPSDIAVEWESNGQPENNYKTTPPVLDSDGSFFLYSRLTVDKSRWQEGNVFSCSVMHEALHNHYTQKSLSLSL
heavy: EVKLLESGGGLVQPKGSLKLSCAASGFTFNTYAMNWVRQAPGKGLEWVARIRSKYNNYATYYADSVKDRFTISRDDSQSILYLQMNNLKTEDTAMYYCVRHGNFGNSYVSWFAYWGQGTLVTVSSASTKGPSVFPLAPCSRSTSESTAALGCLVKDYFPEPVTVSWNSGALTSGVHTFPAVLQSSGLYSLSSVVTVPSSSLGTKTYTCNVDHKPSNTKVDKRVESKYGPPCPPCPAPEAAGGPSVFLFPPKPKDTLMISRTPEVTCVVVDVSQEDPEVQFNWYVDGVEVHNAKTKPREEQFNSTYRVVSVLTVLHQDWLNGKEYKCKVSNKGLPSSIEKTISKAKGQPREPQVCTLPPSQEEMTKNQVSLSCAVKGFYPSDIAVEWESNGQPENNYKTTPPVLDSDGSFFLVSRLTVDKSRWQEGNVFSCSVMHEALHNRFTQKSLSLSLGGGGSGGGGSEVQLVESGGGFVQAGESLTLSCTSSTLTFTPYRMAWYRQAPGKQRDLVADISSGDGRTTNYADFAKGRFTISRDNIKNTVFLRMTNLKPEDTAVYYCNTFVSFVGIARSWGQGTQVTVSS
notes: Two-chain format; human IgG4 knob-into-hole Fc; also called CEA-CD3 bispecific antibody 210

These binders were tested against T1, human CD3ε/δ (ACRO systems, CDD-H52W1) (human, UniProt P07766 23-126; P04234 22-105) (assay: BLI, antibody captured, antigen in solution;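 further: bispecific antibodies captured on AHIC biosensors to a 1.5 nm loading signal, in PBST with 0.02% detergent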).
T1 construct: Bought protein; also called human CD3ϵ/CD3δ; human CD3 epsilon/delta antigen
Protocol: The bispecific antibodies were diluted to 5 ag/ml, and 1.5 nm protein was coupled to the surface of the AHIC sensor chip through 0.02% PBST.

For B1, which Kd is on record?
Its Kd is 1.79 nM.

And the koff?
Its koff is 0.00047 s⁻¹.

What about the kon of the same binder?
Its kon is 262000 M⁻¹ s⁻¹.

How did the Kd turn out when B2 was run?
The Kd was 2.01 nM.

And the koff?
Its koff is 0.000338 s⁻¹.

And the kon?
Its kon is 168000 M⁻¹ s⁻¹.

Which Kd does the source give for B3 here?
The Kd was 3.01 nM.

And the koff?
The koff was 0.000997 s⁻¹.

What does the source list for B4?
Kd: 1.67 nM; koff: 0.000485 s⁻¹; kon: 291000 M⁻¹ s⁻¹

How did the Kd turn out when B5 was run?
The Kd was 2.83 nM.

What about the koff of the same binder?
Its koff is 0.000689 s⁻¹.

What about the kon of the same binder?
Its kon is 243000 M⁻¹ s⁻¹.

Each binder was assayed against T2, human CD3 on Jurkat cells (human, UniProt P07766 23-207; P04234 22-171; P09693 23-182) (assay: FACS, Jurkat cells;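 further: flow cytometric binding of bispecific antibodies to Jurkat T cells, threefold serial dilutions incubated half an hour in the cold, EC50 taken from the fitted binding curve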).
T2 construct: whole, on cells; CD3 complex as on Jurkat (Clone E6-1) cells; also called CD3 expressing cells (Jurkat)

For B1, which EC50 is on record?
The EC50 was 5.53 µg/mL and 42.5 nM.

For B2, which EC50 is on record?
Its EC50 is 0.866 µg/mL and 6.66 nM.

B3 was tested. Which EC50 did it give?
The EC50 was 4.59 µg/mL and 35.3 nM.

How did the EC50 turn out when B4 was run?
Its EC50 is 12.1 µg/mL and 93 nM.

Which EC50 does the source give for B5 here?
Its EC50 is 2.08 µg/mL and 16 nM.

Source: patent US20240400715A1 (VIBRANT PHARMA, published 2024)
